A short description of data set [1]: Western blot, KG1a-TWIST1 and SKM1. The settings on record: glycan lost; control: untreated cells. In general terms: In western blotting, separated proteins are transferred to a membrane and probed.
The nature of data set [2]: CHX chase, TWIST1 stability, KG1a-TWIST1 and SKM1. The settings on record: glycan lost; control: untreated cells.
Data set [3] can be described thus: IP / ubiquitin blot, KG1a-TWIST1 and SKM1. The note with it: glycan lost; control: non-treated cells.
Data set [4] is described as follows: IP / ubiquitin blot, HEK-293T. The settings on record: glycan lost; control: WT flag-TWIST1.
A short description of data set [5]: CHX chase, TWIST1 stability, HEK-293T. The settings on record: glycan lost; control: WT flag-TWIST1.
The next data set is described as follows: Western blot, HEK-293T. The settings on record: glycan lost; control: WT flag-TWIST1.

The values below come from article PMC10514931.

B1: TWIST1: OSMI-1 (protein)
parent chain: MMQDVSSSPVSPADDSLSNSEEEPDRQQPPSGKRGGRKRRSSRRSAGGGAGPGGAAGGGVGGGDEPGSPAQGKRGKKSAGCGGGGGAGGGGGSSSGGGSPQSYEELQTQRVMANVRERQRTQSLNEAFAALRKIIPTLPSDKLSKIQTLKLAARYIDFLYQVLQSDELDSKMASCSYVAHERLSYAFSVWRMEGAWSMSASH
For B1, the expression_or_secretion entry in data set [1] was “decreases”. In addition, in data set [2], the degradation_or_half_life entry is recorded as “decreases”. In addition, in data set [3], the “other: ubiquitination” value is recorded as “increases”.

B2: TWIST1: S31A (protein)
parent chain: MMQDVSSSPVSPADDSLSNSEEEPDRQQPPSGKRGGRKRRSSRRSAGGGAGPGGAAGGGVGGGDEPGSPAQGKRGKKSAGCGGGGGAGGGGGSSSGGGSPQSYEELQTQRVMANVRERQRTQSLNEAFAALRKIIPTLPSDKLSKIQTLKLAARYIDFLYQVLQSDELDSKMASCSYVAHERLSYAFSVWRMEGAWSMSASH
Regarding B2, the “other: ubiquitination” value in data set [4] is “increases”. Also, the degradation_or_half_life entry in data set [5] was “decreases”. Moreover, the expression_or_secretion entry in “Western blot, HEK-293T” is recorded as “decreases”.
